One molecule from US20110306068A1 (HYGLOS INVEST, published 2011) can be followed below.

The target of this experiment is T1, bacteriophage tail protein T4p12 (bacteriophage T4, UniProt P10930 1-527).
T1 sequence (looked up): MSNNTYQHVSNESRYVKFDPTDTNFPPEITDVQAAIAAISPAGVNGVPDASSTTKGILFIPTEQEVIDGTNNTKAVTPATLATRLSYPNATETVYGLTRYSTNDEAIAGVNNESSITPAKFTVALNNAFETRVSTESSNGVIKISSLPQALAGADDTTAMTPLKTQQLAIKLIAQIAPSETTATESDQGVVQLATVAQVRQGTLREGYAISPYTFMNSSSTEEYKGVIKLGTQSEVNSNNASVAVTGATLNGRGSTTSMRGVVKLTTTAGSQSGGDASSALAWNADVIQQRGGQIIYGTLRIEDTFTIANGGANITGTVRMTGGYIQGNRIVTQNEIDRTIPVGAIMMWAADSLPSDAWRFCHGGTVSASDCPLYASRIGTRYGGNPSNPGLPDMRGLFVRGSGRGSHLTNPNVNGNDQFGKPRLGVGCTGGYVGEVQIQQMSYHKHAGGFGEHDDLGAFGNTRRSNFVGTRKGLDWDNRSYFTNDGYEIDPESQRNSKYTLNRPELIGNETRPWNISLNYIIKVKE
The experiment can be described thus: column chromatography; Miro2p12 covalently immobilised on sepharose, control columns without LPS; T4p12 in fractions read by absorption at 280 nm. As for the experimental part:
The amount of the bacteriophage tail protein p12 was plotted against the fractions of the chromatography run. […] The arrow marks the application of p12 onto the column. The fractions F2-F5 were collected after the application. The amount of p12 (stated in mg) was detected by absorption measurement at 280 nm. The fraction volume was 1 ml for fractions F1-F4 and 2 ml for fraction F5. The dissolution of bound T4p12 protein in fraction F5 was affected by addition of 2 mM EDTA to the running buffer (20 mM Hepes, 150 mM NaCl, 0.1 mM CaCl₂, pH 7.5). The bacteriophage tail protein T4p12 was retained at the columns prior loaded with endotoxin, while it elutes without delay through the columns containing no endotoxin.
Bacteriophage tail protein Miro2p12 was immobilized to NHS-Sepharose (Amersham Pharmacia) (3.4 mg protein per 1 ml sepharose) and out of this 4 column were cast with a volume of 0.5 ml each. The columns were washed with each 3 ml sodium phosphate buffer (20 mM sodium phosphate, pH 12.0) and with each 3 ml regeneration buffer (20 mM Hepes, 150 mM NaCl, 2 mM EDTA, pH 7.5). […] The flow-through was collected three times in fractions of 1 ml and once of 2 ml and the concentrations of the bacteriophage tail protein T4p12 was determined via absorption measurement at 280 nm in these fractions (FIG. 5). […]

B1: bacteriophage tail protein Miro2p12 (other)
chain: MAQNNYNHYSDLAKYTIFDPTNTQWPVAIKDVQSALELIGSWARTDTGLPVASPTVAGVIRTATQAEVDAGTIGNAAVTPATLKSTVTRPEATTAVLGLTRYATNTEAAALTAGNRTITAAALGHVFKTVKAQENVDGTVRLTTAAQAQAGTDETTAVTPKRVVEMIGKFSVSPPSYTSATESNLGLVRVATQAQVAAGAVHDGYAVTPKTFMASKASDSVFGIVKFAKDSDVASATSNNLAVTPKSLQALKSTKDKYGLTRLSGSPTTDASLAAAATDAVFKTRRINGKTLDNDITITNNDINCYTRQESDGRYMPAGTRVGNVTWVEGQSWISRGATFTCNAPWEASSRLALNVNVKFERNNDGYDNRIFRFVVIVNGSQWGGELTLNIENTKGGRNGHSWRFEAYASSNFFFNNIPPNATVQIRPTEDSRIIFYDCMLTFCTNRP
notes: The only purification described is of the N-Strep form
On to B1, for which the binding result was “no binding (tested: 0.5 ml of 0.844 mg/ml T4p12 applied)”.
